Assay results as given in US20220380482A1.

Target: human neonatal Fc receptor (FcRn) (human) (UniProt P55899)
Assay: SPR (Biacore T200), FcRn amine-coupled to CM5 chip, antibody as analyte, steady state fit, pH 6.0

| Kd | Substance |
| --- | --- |
| 2370 nM | Irrelevant IgG1 (antibody) |
| 3250 nM | Irrelevant IgG4 (antibody) |
